# Experimental data reported in patent US10227617B2, “Sequestration of carbon dioxide with hydrogen to useful products” (UNIVERSITY OF GEORGIA RESEARCH FOUNDATION, INC., priority 2012, dated 2019).
# Tests used:
# [1] = reported data, FIG. 4; cited from earlier work
# [2] = Scherf et al., 1993; cited from earlier work
# [3] = 4-hydroxybutyryl-CoA dehydratase coupled spectrophotometric assay; format: biochemical; details: 70° C
# Description: (§1) 4-hydroxybutyryl-CoA dehydratase (Msed_1321). The enzyme was purified using a 5 ml Bio-Scale Mini Profinity IMAC cartridge (Bio-Rad). The soluble, heat-treated lysate was loaded onto the column with binding buffer (50 mM Tris, 300 mM NaCl, 3.5 mM DTT, 20 mM imidazole, pH 8.0) and the his-tagged enzyme removed with elution buffer (50 mM Tris, 300 mM NaCl, 3.5 mM DTT, 500 mM imidazole, pH 8.0). The fraction collector was positioned inside the anaerobic chamber, and fractions containing enzyme were collected, concentrated, and dialyzed into reaction buffer (100 mM potassium phosphate, pH 7.5, 1 mM DTT). The enzyme solution was either stored at room temperature inside the anaerobic chamber for immediate use or mixed with glycerol to 20% and stored at −20° C. in a sealed vacuum dessicator. Enzyme activity was measured aerobically in a coupled spectrophotometric assay at 70° C. The assay mixture contained 20 mM sodium phosphate, 5 mM MgCl2, 2 mM 4HB, 2 mM ATP, 1 mM CoA, 2 mM NAD^+, 1 mM DTT, 1 mg/ml purified Msed_0406, and 42 ng/ml Msed_0399. The reaction mixture was pre-heated for 5 min at 70° C. to allow accumulation of 4HB-CoA, and then initiated by addition of purified Msed_1321. For the oxygen-sensitivity assay, Msed_1321 was washed with 100 mM potassium phosphate, pH 7.5, to remove any DTT from the reaction buffer. […]
# [4] = Oxygen-sensitivity assay of 4-hydroxybutyryl-CoA dehydratase; details: exposed to air
# Description: as §1
molecule,measurement,setting,value
"Msed_1456: M. sedula 3-hydroxypropionate:CoA ligase, SEQ ID NO:6 (protein, listed as Metallosphaera sedula) MFMRYIMVEEQTLKTGSQELEEKADYNMRYYAHLMKLSKEKPAEFWGSLAQDLLDWYEPWKETMRQEDPMTRWFIGGKINASYNAVDRHLNGPRKFKAAVIWESELGERKIVTYQDMFYEVNRWANALRSLGVGKGDRVTIYMPLTPEGIAAMLASARIGAIHSVIFAGFGSQAIADRVEDAKAKVVITADAYPRRGKVVELKKTVDEALNSLGERSPVQHVLVYRRMKTDVNMKEGRDVFFDEVGKYRYVEPERMDSNDPLFILYTSGTTGKPKGIMHSTGGYLTGTAVMLLWSYGLSQENDVLFNTSDIGWIVGHSYITYSPLIMGRTVVIYESAPDYPYPDKWAEIIERYRATTFGTSATALRYFMKYGDEYVKNHDLSSIRIIVTNGEVLNYSPWKWGLEVLGGGKVFMSHQWWQTETGAPNLGYLPGIIYMPMKSGPASGFPLPGNFVEVLDENGNPSAPRVRGYLVMRPPFPPNMMMGMWNDNGERLKKTYFSKFGSLYYPGDFAMVDEDGYIWVLGRADETLKIAAHRIGAGEVESAITSHPSVAEAAVIGVPDSVKGEEVHAFVVLKQGYAPSSELAKDIQSHVRKVMGPIVSPQIHFVDKLPKTRSGKVMRRVIKAVMMGSSAGDLTTIEDEASMDEIKKAVEELKKELKTS",activity on 3-hydroxybutyrate,[1],> 1%
"clostridal homolog: 4-hydroxybutyryl-CoA dehydratase from Clostridium aminobutyricum (protein, UniProt P55792 1-490, looked up) 4-hydroxybutyryl-CoA …: MLMTAEQYIESLRKLNTRVYMFGEKIENWVDHPMIRPSINCVAMTYELAQDPQYADLMTTKSNLIGKTINRFANLHQSTDDLRKKVKMQRLLGQKTASCFQRCVGMDAFNAVFSTTYEIDQKYGTNYHKNFTEYLKYIQENDLIVDGAMTDPKGDRGLAPSAQKDPDLFLRIVEKREDGIVVRGAKAHQTGSINSHEHIIMPTIAMTEADKDYAVSFACPSDADGLFMIYGRQSCDTRKMEEGADIDLGNKQFGGQEALVVFDNVFIPNDRIFLCQEYDFAGMMVERFAGYHRQSYGGCKVGVGDVVIGAAALAADYNGAQKASHVKDKLIEMTHLNETLYCCGIACSAEGYPTAAGNYQIDLLLANVCKQNITRFPYEIVRLAEDIAGGLMVTMPSEADFKSETVVGRDGETIGDFCNKFFAAAPTCTTEERMRVLRFLENICLGASAVGYRTESMHGAGSPQAQRIMIARQGNINAKKELAKAIAGIK",time to irreversible inactivation when exposed to air,[2],~25 min
"Msed_1321: M. sedula 4-hydroxybutyryl-CoA dehydratase, SEQ ID NO:15 (protein, listed as Metallosphaera sedula) MVVRTGEQYLQSISNRSKVEIYVMGREVKDVTKHPFLKPSVMSFKATFDAAWEEDTKELGRAWSPYLEEEINRFNHIHRSPDDLAAKVKLLRKLSHKTGACFQRCVGWDSLNTLHIVTTMMAKKGKTEVRDRFVEYLKYVQKNDLALAGAMTDAKGIRNLKPSQQPNKNAYLRITEVTKDGIYVSGAKANITGVAATEEMVVLPTRAMGPEDKDYAVAFAIPTDTEGVKIVVGRQLNDARRMEEGEIDGLPYFYNHEGLVIFDNVFVPMNRVFLAGEWEYTGTLVEIFSAYHRQGYGGCKAGLGDVIIGASADLAKQIGVDRASHVQDKLTEMIFLTETMYSAGIAASLNAVKMCDNCWWVNPMHANVTKHLVARFPSQIAQLSIDLAGGIVGTAPSEWDLKNPKLKEYISRYLQGAEDFTAEDRLRMVRLVENVSMGVAFQIESVHGAGSPAAQRIMFSRLYDLNFAQEVAKKLAGRKSEVKFTSKAEPWRESQSEAEAKEAGLKS",Vmax,[3],2.2 µmol/min/mg
same,duration of initial activation upon exposure to air,[4],about 15 hours
